For orientation: Ki means the equilibrium dissociation constant of an inhibitor or competing ligand from its target. A higher Ki goes with a looser hold on the target.

Ki and IC50 of inhibition of shedding of AMA1 and MSP1 (MESH activity) from isolated 3D7 merozoites; PfSUB2PD titrated from 1.2 μM to 0.075 μM data for one molecule are collected here from publication PMC1291349, “Molecular Identification of a Malaria Merozoite Surface Sheddase” (PLoS Pathogens, 2005).

Assay [1] concerns the target T1, subtilisin BPN′ (UniProt P00782 108-382).
T1 construct: subtilisin BPN′, a bacterial subtilisin; source: bought: Sigma
T1 sequence (looked up): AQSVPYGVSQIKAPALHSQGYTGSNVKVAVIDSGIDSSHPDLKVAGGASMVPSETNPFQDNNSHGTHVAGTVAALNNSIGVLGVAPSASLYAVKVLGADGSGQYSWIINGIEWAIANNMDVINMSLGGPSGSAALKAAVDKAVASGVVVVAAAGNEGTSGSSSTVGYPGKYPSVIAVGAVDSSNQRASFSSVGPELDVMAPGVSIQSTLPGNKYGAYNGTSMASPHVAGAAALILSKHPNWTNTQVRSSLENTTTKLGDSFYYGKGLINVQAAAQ
In words: enzyme inhibition kinetics (Ki determination); hydrolysis of N-succinyl-L-Ala-L-Ala-L-Pro-L-Phe-p-nitroanilide by subtilisin BPN′ with PfSUB2PD; Ki determined as in ref. 33; data not shown. The settings on record: both partners purified.

The target of assay [2] is PfSUB2T, 72-kDa terminal intracellular form of PfSUB2, HA3-tagged (P. falciparum) (UniProt O97364).
PfSUB2T, 72-kDa terminal intracellular form of PfSUB2, HA3-tagged (P. falciparum), sequence (O97364 688-1342): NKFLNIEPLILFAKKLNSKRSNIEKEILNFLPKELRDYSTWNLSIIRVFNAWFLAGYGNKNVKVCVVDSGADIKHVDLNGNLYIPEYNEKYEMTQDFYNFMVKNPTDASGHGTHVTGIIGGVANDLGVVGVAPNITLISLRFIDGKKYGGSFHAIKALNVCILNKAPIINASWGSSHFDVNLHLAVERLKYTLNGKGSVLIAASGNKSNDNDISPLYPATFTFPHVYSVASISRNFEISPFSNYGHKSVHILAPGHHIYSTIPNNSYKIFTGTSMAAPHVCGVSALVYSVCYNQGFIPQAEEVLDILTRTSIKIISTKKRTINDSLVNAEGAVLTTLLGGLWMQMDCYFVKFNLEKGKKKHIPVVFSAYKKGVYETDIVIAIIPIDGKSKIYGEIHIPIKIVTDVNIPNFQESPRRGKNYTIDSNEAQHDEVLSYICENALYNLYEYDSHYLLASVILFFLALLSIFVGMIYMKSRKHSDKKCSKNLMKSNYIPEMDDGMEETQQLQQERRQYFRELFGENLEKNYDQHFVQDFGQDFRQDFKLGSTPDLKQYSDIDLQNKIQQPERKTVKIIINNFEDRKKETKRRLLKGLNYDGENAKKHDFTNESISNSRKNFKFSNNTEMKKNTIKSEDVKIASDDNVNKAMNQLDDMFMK

B1: PfSUB2PD (recombinant PfSUB2 propeptide, Asn22-Leu687) (domain or fragment)
chain: NNNNNYYLSNIELYNYKLRKRNRILNNNINDRKSFLSDLEQNYKPLFDIYELSANFEKRRKELEKKTKGEENEIEKKKENDLEEKKENEIEKKKENDLEKEYNDVINLLELSLSSEYKELNADVSNNDNSGHEENNKHKLNKKNSSNYKNDKSLDELIKGAILKLKQNPNIKNKNMLDYDKIFKIIKEKLINKNLASNKIKGGDNEKLKEEKKQSDISTNVEVKKDIINDQLNKGIPTKIENKDDMINKESNKEDITNEGKSNSLNNLNTLNNDGNIITKVYDHYTIVTNSNDILNDISIDASDISKNSIGGINIPFNENDNSSFTHQRYIVLSNNGEKKYKIVLMTKNPKFMDMDGIYDEEEKKESLIELNQKVNKEENTNLYDGTGTLYYGKKSKKEKENTQQKGGNNPNVDINILNNNNNNNNNNNNNSNNNSNSMNDEEINYNNNNNKESPSMFRRFINFLSFSGNENETEDTLIYHNKNDNSYKNKKEGTGKNNDNNDPNNNNNKKILLNVDKLVDQYLLNLKNNHTSKQELILVLKGELDLHSKNMKNVINNAKKNLEKYFKEHFKEFDKISYDISTPINFLCIFIPTLFDMNNMDLLKQALLILHNDLHEYVENWSFSSTYHTYEADYIKEQDSVYDRSPKKKYIKASKKLYNNKYSFL
notes: PfSUB2, subtilisin-like protease 2 of P. falciparum T9/96, propeptide region Asn22-Leu687, amplified from the synthetic gene pfsub2synth; Asn22 is the predicted N-terminus after signal peptide removal; Cleavable 46-residue N-terminal fusion peptide with His6 and S-tag, from the vector pET-30Xa/LIC; not shown: His6, N-terminal, kept; S-tag, N-terminal, kept
As for B1, the Ki in assay [1] was 1200 nM. In addition, in assay [2], the IC50 of inhibition of shedding of AMA1 and MSP1 (MESH activity) from isolated 3D7 merozoites; PfSUB2PD titrated from 1.2 μM to 0.075 μM stood at 300 nM.
